Square brackets hold non-standard residues; d marks the D form. Ends that are not written are not given here. peg8 = octa(ethylene glycol) chain, 8 ethylene glycol units

By koff is commonly meant the first-order rate constant of dissociation.

Experiment [1] deals with T1, Bovine Serum Albumin (BSA, manufactured by Sigma-Aldrich) (bovine, UniProt P02769 25-607).
T1 construct: Injected at 1000 nM over the immobilised ligands in SPR (selectivity test)
Nature of the experiment: SPR, ligand immobilised on CM5, BSA injected 10 min at 25 C.

Experiment [2] concerns the target T2, human IgG antibody (human).
T2 construct: Injected at 10 to 3000 nM over the immobilised ligands in SPR
Nature of the experiment: SPR (Biacore), ligand immobilised on CM5.

Experiment [3] has as its target T2, human IgG antibody. The experiment can be described thus: SPR (Biacore), ligand immobilised on CM5, fit with BIAevaluation 4.1. A general note: Surface plasmon resonance follows binding to a sensor surface in real time, without labels.

T1 sequence (P02769 25-607 limits assumed): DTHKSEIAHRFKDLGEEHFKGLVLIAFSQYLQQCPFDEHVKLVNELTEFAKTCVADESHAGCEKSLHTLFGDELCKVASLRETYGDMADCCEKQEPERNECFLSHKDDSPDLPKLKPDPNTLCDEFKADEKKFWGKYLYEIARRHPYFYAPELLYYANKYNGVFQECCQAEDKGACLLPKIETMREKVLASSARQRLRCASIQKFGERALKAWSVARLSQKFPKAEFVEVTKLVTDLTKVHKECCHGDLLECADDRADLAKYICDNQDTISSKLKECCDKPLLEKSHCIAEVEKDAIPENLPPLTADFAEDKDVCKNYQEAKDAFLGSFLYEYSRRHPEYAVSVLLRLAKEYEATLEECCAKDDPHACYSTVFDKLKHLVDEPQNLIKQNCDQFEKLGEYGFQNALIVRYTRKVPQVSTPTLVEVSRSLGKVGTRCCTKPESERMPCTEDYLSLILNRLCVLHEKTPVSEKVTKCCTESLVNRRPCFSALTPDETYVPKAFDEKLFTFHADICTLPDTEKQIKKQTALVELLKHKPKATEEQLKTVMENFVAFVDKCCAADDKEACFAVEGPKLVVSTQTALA

B1: polypeptide as set forth in SEQ ID NO: 7 (KKKEQQNAFYEILHKKK) (peptide)
peptide: KKKEQQNAFYEILHKKK
notes: Synthetic peptide, immobilised on a CM5 sensor chip; also called immobilized carrier G
Take B1: in experiment [1], the binding result was “no binding (tested: 1000 nM)”. In addition, the koff in experiment [2] amounted to 0.00016 s⁻¹.

B2: polypeptide as set forth in SEQ ID NO: 8 (EQQNAFYGGGKGGGEQQNAFY) (peptide)
peptide: EQQNAFYGGGKGGGEQQNAFY
notes: Synthetic fusion polypeptide of two EQQNAFY units with a GGGKGGG linker, immobilised on a CM5 sensor chip; also called immobilized carrier H
For B2, the binding result in experiment [1] is “no binding (tested: 1000 nM)”. For the same molecule, the koff in experiment [2] was 0.00015 s⁻¹.

B3: polypeptide as set forth in SEQ ID NO: 4 (EQQNAFYEILHL) (peptide)
peptide: EQQNAFYEILHL
notes: Synthetic peptide, immobilised on a CM5 sensor chip; also called immobilized carrier D
Regarding B3, the binding result in experiment [1] is given as “no binding (tested: 1000 nM)”. This molecule registered an off-rate (koff) in experiment [2] of 0.00013 s⁻¹.

B4: polypeptide Ac-EQQNAFYEILHK (SEQ ID NO: 21) (peptide)
peptide: Ac-EQQNAFYEILHK
notes: Synthetic peptide, immobilised on a CM5 sensor chip; also called immobilized carrier U
On to B4, for which, in experiment [1], the binding result is given as “no binding (tested: 1000 nM)”. In addition, in experiment [2], the koff was found to be 0.00016 s⁻¹.

B5: polypeptide EQQNAFY-NH2 (SEQ ID NO: 19) (peptide)
peptide: EQQNAFY-NH2
notes: Synthetic peptide, immobilised on a CM5 sensor chip; also called immobilized carrier S
Turning to B5, the binding result in experiment [1] is listed as “no binding (tested: 1000 nM)”. Further, the off-rate (koff) in experiment [2] worked out at 0.00015 s⁻¹.

B6: polypeptide Ac-KKKEQQNAFYEILHKKK (SEQ ID NO: 23) (peptide)
peptide: Ac-KKKEQQNAFYEILHKKK
notes: Synthetic peptide, immobilised on a CM5 sensor chip; also called immobilized carrier W
For the molecule B6, in experiment [1], the binding result is given as “no binding (tested: 1000 nM)”. In experiment [2], this molecule returned a koff of 0.00016 s⁻¹.

B7: polypeptide as set forth in SEQ ID NO: 14 (EAQQSAFY) (peptide)
peptide: EAQQSAFY
notes: Synthetic peptide, immobilised on a CM5 sensor chip; also called immobilized carrier N
With B7, the binding result in experiment [1] is reported as “no binding (tested: 1000 nM)”. The molecule also displayed a koff in experiment [2] of 0.00014 s⁻¹.

B8: polypeptide as set forth in SEQ ID NO: 17 (DAQQSAFY) (peptide)
peptide: DAQQSAFY
notes: Synthetic peptide, immobilised on a CM5 sensor chip; also called immobilized carrier Q
Turning to B8, in experiment [1], the binding result is listed as “no binding (tested: 1000 nM)”. The same molecule registered an off-rate (koff) in experiment [2] of 0.00013 s⁻¹.

B9: polypeptide as set forth in SEQ ID NO: 16 (EAQQNAFY) (peptide)
peptide: EAQQNAFY
notes: Synthetic peptide, immobilised on a CM5 sensor chip; also called immobilized carrier P
On to B9, for which the binding result in experiment [1] is “no binding (tested: 1000 nM)”. In experiment [2], this molecule returned a koff of 0.00019 s⁻¹.

B10: polypeptide as set forth in SEQ ID NO: 15 (EQSAFY) (peptide)
peptide: EQSAFY
notes: Synthetic peptide, immobilised on a CM5 sensor chip; also called immobilized carrier O
As to B10, the binding result in experiment [1] was “no binding (tested: 1000 nM)”. In experiment [2], the koff came out at 0.00014 s⁻¹.

B11: polypeptide as set forth in SEQ ID NO: 9 (EQNAFY) (peptide)
peptide: EQNAFY
notes: Synthetic peptide, immobilised on a CM5 sensor chip; also called immobilized carrier I
For the molecule B11, the binding result in experiment [1] is listed as “no binding (tested: 1000 nM)”. This molecule also showed a koff in experiment [2] of 0.00017 s⁻¹.

B12: polypeptide as set forth in SEQ ID NO: 18 (DQSAFY) (peptide)
peptide: DQSAFY
notes: Synthetic peptide, immobilised on a CM5 sensor chip; also called immobilized carrier R
With B12, the binding result in experiment [1] is “no binding (tested: 1000 nM)”. For the same molecule, the koff in experiment [2] was determined as 0.00019 s⁻¹.

B13: polypeptide as set forth in SEQ ID NO: 26 (QQNAFYEI) (peptide)
peptide: QQNAFYEI
notes: Synthetic comparative peptide, immobilised on a CM5 sensor chip; also called immobilized carrier AC
The molecule B13 returned an off-rate (koff) in experiment [2] of 0.00024 s⁻¹.

B14: fusion polypeptide Ac-EQQNAFY-(peg)8-K-(peg)8-EQQNAFY (SEQ ID NO: 25) (peptide)
peptide: Ac-EQQNAFY[peg8]K[peg8]EQQNAFY
notes: Synthetic fusion polypeptide, 15 amino acid residues, the two units and the central Lys joined by PEG linkers and not by peptide bonds; immobilised on a CM5 sensor chip; also called immobilized carrier Y
Take B14: the binding result in experiment [1] is recorded as “no binding (tested: 1000 nM)”. Moreover, in experiment [2], the off-rate (koff) is 0.00019 s⁻¹.

B15: polypeptide as set forth in SEQ ID NO: 11 (EQQSAFYEILH) (peptide)
peptide: EQQSAFYEILH
notes: Synthetic peptide, immobilised on a CM5 sensor chip; also called immobilized carrier K
As for B15, the binding result in experiment [1] is given as “no binding (tested: 1000 nM)”. Besides, in experiment [2], the koff was 0.00018 s⁻¹.

B16: polypeptide as set forth in SEQ ID NO: 3 (EQQNAFYEILH) (peptide)
peptide: EQQNAFYEILH
notes: Synthetic peptide, immobilised on a CM5 sensor chip; also called immobilized carrier C
Take B16: in experiment [1], the binding result is listed as “no binding (tested: 1000 nM)”. For the same molecule, the koff in experiment [2] came out at 0.00017 s⁻¹.

B17: polypeptide as set forth in SEQ ID NO: 13 (DQQSAFYEILH) (peptide)
peptide: DQQSAFYEILH
notes: Synthetic peptide, immobilised on a CM5 sensor chip; also called immobilized carrier M
As for B17, in experiment [1], the binding result is “no binding (tested: 1000 nM)”. Also, the koff in experiment [2] is 0.00015 s⁻¹.

B18: polypeptide as set forth in SEQ ID NO: 2 (KEQQNAFY) (peptide)
peptide: KEQQNAFY
notes: Synthetic peptide, immobilised on a CM5 sensor chip; also called immobilized carrier B
As to B18, the binding result in experiment [1] is given as “no binding (tested: 1000 nM)”. The koff in experiment [2] turned out to be 0.00013 s⁻¹.

B19: polypeptide Ac-EQQNAFYK (SEQ ID NO: 20) (peptide)
peptide: Ac-EQQNAFYK
notes: Synthetic peptide, immobilised on a CM5 sensor chip; also called immobilized carrier T
In the case of B19, the binding result in experiment [1] was “no binding (tested: 1000 nM)”. The molecule also had a dissociation rate constant (koff) in experiment [2] of 0.00014 s⁻¹.

B20: polypeptide H2N-(peg)8-EQQNAFYE (SEQ ID NO: 24) (peptide)
peptide: peg8-EQQNAFYE
notes: Synthetic peptide, immobilised on a CM5 sensor chip; also called immobilized carrier X
For B20, the binding result in experiment [1] was “no binding (tested: 1000 nM)”. This molecule registered a koff in experiment [2] of 0.00013 s⁻¹.

B21: polypeptide as set forth in SEQ ID NO: 1 (EQQNAFY) (peptide)
peptide: EQQNAFY
notes: Synthetic peptide, immobilised on a CM5 sensor chip by EDC/NHS coupling; also called polypeptide 1
For the molecule B21, in experiment [1], the binding result is on record as “no binding (tested: 1000 nM)”. This molecule also had a koff in experiment [3] of 0.00017 s⁻¹.

B22: polypeptide as set forth in SEQ ID NO: 10 (EQQSAFY) (peptide)
peptide: EQQSAFY
notes: Synthetic peptide, immobilised on a CM5 sensor chip; also called immobilized carrier J
Regarding B22, in experiment [1], the binding result was “no binding (tested: 1000 nM)”. Also, the koff in experiment [2] worked out at 0.00015 s⁻¹.

B23: polypeptide as set forth in SEQ ID NO: 5 (EGQNAFY) (peptide)
peptide: EGQNAFY
notes: Synthetic peptide, immobilised on a CM5 sensor chip; also called immobilized carrier E
On to B23, for which, in experiment [1], the binding result is given as “no binding (tested: 1000 nM)”. For the same molecule, the off-rate (koff) in experiment [2] was determined as 0.0002 s⁻¹.

B24: polypeptide as set forth in SEQ ID NO: 12 (DQQSAFY) (peptide)
peptide: DQQSAFY
notes: Synthetic peptide, immobilised on a CM5 sensor chip; also called immobilized carrier L
Consider B24, for which, in experiment [1], the binding result is “no binding (tested: 1000 nM)”. The koff in experiment [2] worked out at 0.00015 s⁻¹.

B25: polypeptide Ac-KKKEQQNAFYKKK (SEQ ID NO: 22) (peptide)
peptide: Ac-KKKEQQNAFYKKK
notes: Synthetic peptide, immobilised on a CM5 sensor chip; also called immobilized carrier V
As for B25, the binding result in experiment [1] is given as “no binding (tested: 1000 nM)”. Also, the dissociation rate constant (koff) in experiment [2] was found to be 0.00015 s⁻¹.

B26: polypeptide as set forth in SEQ ID NO: 6 (KKKEQQNAFYKKK) (peptide)
peptide: KKKEQQNAFYKKK
notes: Synthetic peptide, immobilised on a CM5 sensor chip; also called immobilized carrier F
With B26, the binding result in experiment [1] is recorded as “no binding (tested: 1000 nM)”. In experiment [2], the off-rate (koff) came out at 0.00015 s⁻¹.
